# Results: the RNAGym collection of RNA variant scans (doi:10.7554/elife.80360)
# B1: Hammerhead Ribozyme (parent)
# chain: ACCGGAUGUGCUUUCCGGUCUGAUGAGUCCGUGAGGACGAAACAG
# Variants of: B1
# Assay: self-cleavage, relative activity (ratio to wild type); higher = more cleavage; co-transcriptional
row,Variant,self-cleavage
1,A37U G45A,0.468
2,A37U G45C,0.363
3,A37U A41G,0.406
4,A37U A41C,0.34
5,A37U A41U,0.307
6,G36C C43A,0.35
7,G36C C43G,0.286
8,G36C C43U,0.308
9,C38A A44G,0.862
10,C38A A44U,0.396
11,C38A A44C,0.405
12,A34U G45U,0.625
13,A34U G45A,0.477
14,A34U G45C,0.533
15,C38G A44G,0.833
16,C38G A44U,0.407
17,C38G A44C,0.508
18,A37G A41C,0.358
19,A37G A41U,0.378
20,A37G A41G,0.268
21,G35C A44G,0.692
22,G35C A44C,0.42
23,G35C A44U,0.465
24,A34U C43U,0.304

row,Variant,self-cleavage
1,A34U C43G,0.315
2,A34U C43A,0.393
3,G36U C38A,0.326
4,G36U C38U,0.674
5,G36U C38G,0.331
6,G35C C43U,0.387
7,G35C C43A,0.352
8,G35C C43G,0.325
9,G36U G45C,0.454
10,G36U G45A,0.452
11,G36U G45U,0.441
12,G36U A44U,0.379
13,G36U A44C,0.339
14,G36U A44G,0.706
15,G35A A37G,0.58
16,G35A A37C,0.364
17,G35A A37U,0.414
18,A37U A42U,0.327
19,A37U A42C,0.304
20,A37U A42G,0.271
21,A37C A42C,0.241
22,A37C A42U,0.27
23,A37C A42G,0.235
24,G36C A40C,0.4

row,Variant,self-cleavage
1,G36C A40U,0.346
2,G36C A40G,0.368
3,G35A A41U,0.278
4,G35A A41G,0.328
5,G35A A41C,0.32
6,A37C A40C,0.285
7,A37C A40G,0.354
8,A37C A40U,0.268
9,A37C G45C,0.337
10,A37C G45U,0.636
11,A37C G45A,0.404
12,A37U A40G,0.284
13,A37U A40C,0.472
14,A37U A40U,0.303
15,A34U G36C,0.406
16,A34U G36A,0.437
17,A34U G36U,0.565
18,C38A A42C,0.326
19,C38A A42G,0.263
20,C38A A42U,0.283
21,G35A A42G,0.252
22,G35A A42U,0.29
23,G35A A42C,0.354
24,A37U A44C,0.306

row,Variant,self-cleavage
1,A37U A44G,0.801
2,A37U A44U,0.417
3,A37G C38U,0.534
4,A37G C38A,0.639
5,A37G C38G,0.79
6,G36A,0.733
7,G36C,0.52
8,G36U,0.625
9,A34U A40U,0.305
10,A34U A40C,0.404
11,A34U A40G,0.304
12,G35C A40C,0.466
13,G35C A40G,0.28
14,G35C A40U,0.296
15,A37G A42U,0.32
16,A37G A42C,0.342
17,A37G A42G,0.264
18,G35C G45U,0.498
19,G35C G45A,0.385
20,G35C G45C,0.395
21,G36A A40U,0.384
22,G36A A40C,0.319
23,G36A A40G,0.289
24,G36U A41U,0.372

row,Variant,self-cleavage
1,G36U A41C,0.309
2,G36U A41G,0.391
3,G36U A42U,0.329
4,G36U A42C,0.37
5,G36U A42G,0.316
6,G35C G39U,0.307
7,G35C G39C,0.365
8,G35C G39A,0.31
9,C38A A41U,0.336
10,C38A A41G,0.338
11,C38A A41C,0.287
12,G35A A40U,0.317
13,G35A A40C,0.435
14,G35A A40G,0.37
15,A34U G39U,0.356
16,A34U G39A,0.288
17,A34U G39C,0.351
18,G36A C43U,0.378
19,G36A C43A,0.383
20,G36A C43G,0.274
21,A37G A40G,0.274
22,A37G A40C,0.407
23,A37G A40U,0.399
24,G36C G39U,0.325

row,Variant,self-cleavage
1,G36C G39C,0.335
2,G36C G39A,0.29
3,G36A A42C,0.287
4,G36A A42U,0.333
5,G36A A42G,0.25
6,G35U G45C,0.466
7,G35U G45U,0.421
8,G35U G45A,0.473
9,C38G G45U,0.562
10,C38G G45C,0.491
11,C38G G45A,0.461
12,G35C C38A,0.398
13,G35C C38G,0.376
14,G35C C38U,0.67
15,A34U C38A,0.409
16,A34U C38U,0.799
17,A34U C38G,0.403
18,G36C A42C,0.321
19,G36C A42G,0.272
20,G36C A42U,0.286
21,G36A G39U,0.322
22,G36A G39A,0.337
23,G36A G39C,0.306
24,G36U C43G,0.325

row,Variant,self-cleavage
1,G36U C43A,0.36
2,G36U C43U,0.304
3,G35A A44C,0.42
4,G35A A44G,0.837
5,G35A A44U,0.46
6,G35U A42C,0.384
7,G35U A42U,0.344
8,G35U A42G,0.253
9,G35U A44U,0.338
10,G35U A44C,0.384
11,G35U A44G,0.943
12,G35C A41G,0.329
13,G35C A41C,0.337
14,G35C A41U,0.356
15,C38A C43A,0.335
16,C38A C43G,0.382
17,C38A C43U,0.462
18,A37U C38U,0.714
19,A37U C38A,0.693
20,A37U C38G,0.384
21,A34G G45A,0.589
22,A34G G45C,0.551
23,A34G G45U,0.544
